According to the supplement of paper PMC12042874:
± gives the uncertainty stated by the source.

test: amyloid nucleation score (Sup35N fusion, yeast selection) (log enrichment); library NNK3; higher = more nucleation; inactive = no reads after selection
Procedure, shortened: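 Using DiMSum, nucleation scores were taken as the log enrichment of output over input reads, centred on the mode score of non-aggregating sequences. The input and output reads came from Illumina sequencing of plasmid inserts, with sequences under 100 input reads excluded. The yeast were psi-negative, expressed Sup35N fused to peptides of 20 random codons, were induced with 100 μM copper sulfate for 24 hours, and were grown 7 days at 30°C on medium lacking adenine and uracil.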

Substance	amyloid nucleation score
HIFDNSYIFLDLLLARKY	1.87 ± 0.061
HIINCFIFLNVTDYTIVFLL	2.21 ± 0.074
HILHLRLDYFLGA	0.401 ± 0.3
HINARRLYFTYV	inactive
HIVKKFPSPMRITWCGSPFQ	inactive
HIVMVLRSLAYVSSSTHGRR	inactive
HIWVCLEVGVGKSILVLLLF	inactive
HIYRYLMS	inactive
HKLLGVTYYAV	inactive
HKPCRCKTMLWDLAIVGSLE	inactive
HKSVLFNTRSSCRTSVLIVR	inactive
HLACLRV	inactive
HLAHLSRSLSVKSSSVMKGH	inactive
HLFGDFDKWVDKLWRYNRVD	0.985 ± 0.21
HLFLKHMLLTYCKPCGW	inactive
HLNLTHNWNVYGKDLNGQFF	2.13 ± 0.072
HLRDMQRSQNLVG	inactive
HLSSNVLNYVLNFHWFCNFG	0.836 ± 0.16
HLVADWQCHSDGFKSWLGNW	inactive
HLVMGWLTKPSSIFGLEDKR	1.13 ± 0.11
HMCRTSCDRFGAIPNFMHWS	inactive
HMTGARRN	inactive
HNKDDK	inactive
HNLMYDRYP	inactive

Substance	amyloid nucleation score
HPCFLW	inactive
HPLAAGHGVYFSSCIFK	1.7 ± 0.097
HPMRGDVGSRAVFRMGHFIH	inactive
HPRELYTFKKSWFLGRDS	inactive
HPRTLSRLNINFRANRYGWS	-0.859 ± 1.7
HPSTSTYRQRLPNCY	inactive
HQIFYVFEYEYSKRLLCMWW	inactive
HRELRVTVHQKFNLRMRVSD	inactive
HRKMHDT	inactive
HRLVFCQLTR	inactive
HRMRLSCCTAFDTLVMIPIS	0.482 ± 0.17
HRVDND	inactive
HRVRYVGPENSQNLCIRDYY	inactive
HSFFVVQAS	inactive
HSLWRLGYYM	0.912 ± 0.15
HSNSRD	-0.231 ± 0.69
HSQKTTKALRNPSNIQ	inactive
HSRTMVLMCIAMIRVLGYGF	inactive
HSSNWCSVVITLCCTLRKDY	0.748 ± 0.19
HSTGFPCLLVKITGLRHRLG	inactive
HSVLGMCFSPKGVDVTTLVN	inactive
HSWFFGFIFWLLNDHSIHYG	inactive
HSYHPMPWTVNLGCHFGGYC	2.38 ± 0.068
HTDIMIWFRSCYYFLSFFMY	inactive

Substance	amyloid nucleation score
HTDWICYRRWYCIASRAMYQ	inactive
HTGNLYHLSWCV	inactive
HTILSTTTYMKMSQYSLW	inactive
HTVKEGSSNNVVRVRIARRF	inactive
HVFFMKTEEPCTPEY	inactive
HVLGRKLFHGVAVVLFSCEL	inactive
HVSGVIYVVGNN	inactive
HVYLAQGL	inactive
HVYNLLRVVF	inactive
HWCTSKFIKPNGYPREERRV	inactive
HWFLYLPFSPYCIPRIPDYL	inactive
HWFRTGDMGVDFTVEACDWL	inactive
HWHRLTSCGSRLGTGVHVVL	inactive
HWILSTPCLNVV	inactive
HWLRCHEVEKVLVL	inactive
HWNCGVTNSGEFFALAVGFI	inactive
HWPCLNSYEAIVFFCGMDSH	inactive
HWQYCLIFNQYVLKLCATHC	1.04 ± 0.16
HWSHNLQFIFFYSYVGLANE	1.96 ± 0.077
HYDFWIISYLPRSPGNMAID	inactive
HYMFSVVNVSGDCFFLSESN	3.24 ± 0.071
HYSLNASIYSTCTRTSMNPV	-0.136 ± 0.53
HYSLSQDISDSNGLQLLFLL	2.1 ± 0.075
HYYVDNPD	inactive

Substance	amyloid nucleation score
IADSKHTNCFRYMSHVW	inactive
IAEGFNTVGDLWNIGCCDSG	0.154 ± 0.33
IAGKIEIIVVRCYSLVGPCT	0.305 ± 0.19
IAPYGRGWKDYLIDSEHVRT	inactive
IARINGMLASSGVASTM	inactive
IASAYLSVLRYPFRIAKGLI	inactive
IATLEDFMFPLFWYCIYLTN	inactive
IAVCTRAMASNRLGFQYRNG	inactive
IAVQLEILAY	inactive
IAYIT	inactive
ICAGLWAD	inactive
ICCKYGDAKRLVCWSQKSRK	inactive
ICDFCQQCSVNERKTLNYSA	inactive
ICDKRWVC	inactive
ICISKRYWHDIAFCIGYSNE	1.29 ± 0.12
ICLILARINPSIRDLLG	0.298 ± 0.74
ICNFHSSRPLNIS	inactive
ICPIMNCVFFHRTDQSLSFN	2.29 ± 0.05
ICTLCNVSRLLWSPRDKNAF	2.93 ± 0.063
ICWKRCHG	inactive
ICYIPY	inactive
ICYTLVTN	inactive
IDQDFMTVIRQS	inactive
IDRHAPSEESVPFWSYWNNG	inactive

Substance	amyloid nucleation score
IDSCLQNSP	inactive
IDSLSAIGKSWTQGESRSDR	inactive
IDVSCMQNNILRRIGFHV	inactive
IEAVCNSWRIYGM	inactive
IEHSQYPAQAKPRLGSCLVL	inactive
IENRFVSFLYL	1.88 ± 0.075
IERLDNSIVNVMWILSGCKA	inactive
IEVLKNLRMVTGLVTL	inactive
IEWACVKQMYSHRALLRERR	inactive
IFCMFYGSMQAQTIKCNVTH	1.19 ± 0.093
IFDLWLRLYSLANYNGSFVT	inactive
IFEVYDVIT	inactive
IFHLKIAYFPNYGRITLYYL	1.65 ± 0.091
IFIIIGRRFIILKSLVRLHF	inactive
IFINRKE	-0.431 ± 0.76
IFKKLSFL	inactive
IFNKVSLYNEMLVWVLTWSW	inactive
IFNMSQYNKLECTLTLY	inactive
IFSHSSPYNTPRK	inactive
IFVKDFLII	inactive
IFVVSNFISSSMNYRSYCYL	inactive
IGCCFSVLKNLLFSFDVKQF	inactive
IGFCKDLVTCRTDYYAQLDR	inactive
